# Target: T1, recombinant human IL-6 (human, UniProt P05231 30-212, limits assumed)
# T1 construct: also called rhIL6; human recombinant IL-6
# Assay: competition ELISA, rhIL-6 in solution against captured IL-6
# Experimental: Briefly, plates were coated with 2 μg/ml of mBE4 capture antibody in coating buffer, 100 μl per well. The plates were incubated overnight. Next, the plates were washed 3 times and tapped dry. The plates were then blocked with 200 μl per well of Assay Diluent or 10% FBS in PBS and incubated for 2 hours. […] The reaction was left at RT for 3-4 hours. […] Next, the plates were washed 3 times and tapped dry. […] The plates were incubated for 1-2 hours. The plates were washed 3 times and tapped dry. […] The plates were incubated at RT for 2 hours. (Therefore, any unbound mAb at this point will be measured by ELISA). Plates were then washed 5 times and tapped dry. 100 μl of detection Ab goat anti-human IgG F(ab)′2-HRP (Jackson lab) was added at 1:20,000 dilutions or 1:40,000 dilutions (depending on lot) and the plates were incubated for 1-2 hours. The plates were washed 7 times and tapped dry. Next, the Developer Substrate (equal parts of each reagent in the kit) was pre-mixed and allowed to warm to room temperature before use. Then 100 μl of Developer was added to each well. The plates were allowed to develop for 15 minutes un-sealed in a drawer in the dark. Finally, developing was stopped by adding 100 μl of 2N H₂SO₄ to each well and plates were read as Endpoint at 450 nm-[…].
row,Binder,IC50
1,"mAb 186 (antibody, V domains shown) VH: QVTLKESGPALVKPTQTLTLTCTFSGFSLTTSGMCVSWIRQPPGKALEWLALIYWDDDKRYNPSLRSRLTITKDTSKNQVVLTMTNMDPVDTATYYCARSYDDYLYYALDYWGQGTLVT VL: DVVMTQSPSSLSASVGGRVTITCRASQTIGDYLNWYQQKPGKAPRLLIYSASIVQSGVPSRFSASGSGTDFTLTISSLQPEDFATYSCQQSYSFPLTFGGGTKLEIK",2 nM
2,"mAb 189 (antibody, V domains shown) VH: QVTLKESGPALVKPTQTLTLTCTFSGFSLTTSGMCVSWIRQPPGKALEWLALIYWDDDKRYNPSLRSRLTITKDTSKNQVVLTMTNMDPVDTATYYCARSYDDYLYYALDYWGQGTLVT VL: DIQMTQSPSSLSAFVGDGVTMTCWASQSINDYLNWYHQRPGEAPELLVFAASNLQIGVPSRFRGSGSETYFTLTINSLQPEDSGTYFCQQTSSFPLTFGGGTKLE",0.72 nM
3,"mAb 188 (antibody, V domains shown) VH: QVTLKESGPALVKPTQTLTLTCTFSGFSLTTSGMCVSWIRQPPGKALEWLALIYWDDDKRYNPSLRSRLTITKDTSKNQVVLTMTNMDPVDTATYYCARSYDDYLYYALDYWGQGTLVT VL: DIQMTQSPSTLSASVGDRVTITCRASQSISRWLAWYQQKPGKAPKLLISKASSLEYGVPSRFSGSGSGTEFALTISNVQPEDFATYYCQQSFAVPLTFGGGTKLEIK",1.4 nM
4,"mAb 187 (antibody, V domains shown) VH: QVTLKESGPALVKPTQTLTLTCTFSGFSLTTSGMCVSWIRQPPGKALEWLALIYWDDDKRYNPSLRSRLTITKDTSKNQVVLTMTNMDPVDTATYYCARSYDDYLYYALDYWGQGTLVT VL: EIVLTQSPSSLSASAGDTVTIACRASQGIRTALAWYQQKPGRNPKLLISEAYRLQSGVSPKFSGSGFGTDFTLTINSLQPEDFATYYCQQFNDFPLTFGGGTKLEIK",2.4 nM
5,"mAb 810 (antibody, V domains shown) VH: QVTLKESGPTLVKPTQTLTLTCSFSGFSLSTSGVGVGWVRQPPGKALEWLAFIFWDDDKYYSPSLESRLTITKDTSKNQVVLTMTNMDPVDTATYYCARSYDDYLYYSLDYWGQGTLVT VL: DIQMTQSPSSLSAFVGDGVTMTCWASQSINDYLNWYHQRPGEAPELLVFAASNLQIGVPSRFRGSGSETYFTLTINSLQPEDSGTYFCQNGHSFPLTFGGGTKLEI",0.22 nM
6,"mAb 191 (antibody, V domains shown) VH: QVTLKESGPALVKPTQTLTLTCTFSGFSLTTSGMCVSWIRQPPGKALEWLALIYWDDDKRYNPSLRSRLTITKDTSKNQVVLTMTNMDPVDTATYYCARSYDDYLYYALDYWGQGTLVT VL: DVVMTQSPSSLSASVGGRVTITCRASQTIGDYLNWYQQRPGKAPRLLIYSASIVQSGVPSRFSGSGSGTHFTLTISSLQPEDFATYSCQQSYSFPLTFGGGTKLEIK",1.5 nM
7,"mAb 1123 (antibody, V domains shown) VH: QVTLKESGPTLVKPTQTLTLTCSFSGFSLSTSGVGVGWVRQPPGKALEWLAFIFWDDDKYYSPSLESRLTITKDTSKNQVVLTMTNMDPVDTATYYCARFYDDYLYYALDYWGQGTLVT VL: DIQMTQSPSSLSAFVGDGVTMTCWASQSINDYLNWYHQRPGEAPELLVFAASNLQIGVPSRFRGSGSETYFTLTINSLQPEDSGTYFCQNGHSFPLTFGGGTKLEI",0.11 nM
8,"mAb 770 (antibody, V domains shown) VH: QVTLKESGPTLVKPTQTLTLTCSFSGFSLSTSGVGVGWVRQPPGKALEWLAFIFWDDDKYYSPSLESRLTITKDTSKNQVVLTMTNMDPVDTATYYCARSYDDYLYYALDYWGQGTLVT VL: DIQMTQSPSSLSAFVGDGVTMTCWASQSINDYLNWYHQRPGEAPELLVFAASNLQIGVPSRFRGSGSETYFTLTINSLQPEDSGTYFCQHGHSFPLTFGGGTKLEI",0.12 nM
9,"mAb 275 (antibody, V domains shown) VH: QVTLKESGPALVKPTQTLTLTCTFSGFSLTTSGMCVSWIRQPPGKALEWLALIYWDDDKRYNPSLRSRLTITKDTSKNQVVLTMTNMDPVDTATYYCARSYDDYLYYALDYWGQGTLVT VL: DIQMTQSPSSLSAFVGDGVTMTCWASQSINDYLNWYHQRPGEAPELLVFAASNLQIGVPSRFRGSGSETYFTLTINSLQPEDSGTYFCQNGHSFPLTFGGGTKLEI",0.7 nM
10,"mAb 808 (antibody, V domains shown) VH: QVTLKESGPTLVKPTQTLTLTCSFSGFSLSTSGVGVGWVRQPPGKALEWLAFIFWDDDKYYSPSLESRLTITKDTSKNQVVLTMTNMDPVDTATYYCARSYDDYLYYALDYWGQGTLVT VL: DIQMTQSPSSLSAFVGDGVTMTCWASQSINDYLNWYHQRPGEAPELLVFAASNLQIGVPSRFRGSGSETYFTLTINSLQPEDSGTYFCQNGWSFPLTFGGGTKLEI",0.08 nM
11,"mAb 963 (antibody, V domains shown) VH: QVTLKESGPTLVKPTQTLTLTCSFSGFSLSTSGVGVGWVRQPPGKALEWLAFIFWDDDKYYSPSLESRLTITKDTSKNQVVLTMTNMDPVDTATYYCARSGDDYLYYALDYWGQGTLVT VL: DIQMTQSPSSLSAFVGDGVTMTCWASQSINDYLNWYHQRPGEAPELLVFAASNLQIGVPSRFRGSGSETYFTLTINSLQPEDSGTYFCQNGHSFPLTFGGGTKLEI",0.09 nM
12,"mAb 774 (antibody, V domains shown) VH: QVTLKESGPTLVKPTQTLTLTCSFSGFSLSTSGVGVGWVRQPPGKALEWLAFIFWDDDKYYSPSLESRLTITKDTSKNQVVLTMTNMDPVDTATYYCARSYDDYLYYALDYWGQGTLVT VL: DIQMTQSPSSLSAFVGDGVTMTCWASQSINDYLNWYHQRPGEAPELLVFAASNLQIGVPSRFRGSGSETYFTLTINSLQPEDSGTYFCQSGHSFPLTFGGGTKLEI",0.16 nM
13,"mAb 1127 (antibody, V domains shown) VH: QVTLKESGPTLVKPTQTLTLTCSFSGFSLSTSGVGVGWVRQPPGKALEWLAFIFWDDDKYYSPSLESRLTITKDTSKNQVVLTMTNMDPVDTATYYCARSYDDYLMYALDYWGQGTLVT VL: DIQMTQSPSSLSAFVGDGVTMTCWASQSINDYLNWYHQRPGEAPELLVFAASNLQIGVPSRFRGSGSETYFTLTINSLQPEDSGTYFCQNGHSFPLTFGGGTKLEI",0.09 nM

# These reach a lower IC50. Values come first.
row,IC50,Binder
1,0.032 nM,"mAb 1155 (antibody, V domains shown) VH: QVTLKESGPTLVKPTQTLTLTCSFSGFSLSTSGVGVGWVRQPPGKALEWLAFIFWDDDKYYSPSLESRLTITKDTSKNQVVLTMTNMDPVDTATYYCARSADDYLYYSFDTWGQGTLVT VL: DIQMTQSPSSLSAFVGDGVTMTCWASQSINDYLNWYHQRPGEAPELLVFAASNLQIGVPSRFRGSGSETYFTLTINSLQPEDSGTYFCQHGHSFPLTFGGGTKLEI"
2,0.065 nM,"mAb 992 (antibody, V domains shown) VH: QVTLKESGPTLVKPTQTLTLTCSFSGFSLSTSGVGVGWVRQPPGKALEWLAFIFWDDDKYYSPSLESRLTITKDTSKNQVVLTMTNMDPVDTATYYCARSYDDYLYYALDTWGQGTLVT VL: DIQMTQSPSSLSAFVGDGVTMTCWASQSINDYLNWYHQRPGEAPELLVFAASNLQIGVPSRFRGSGSETYFTLTINSLQPEDSGTYFCQNGHSFPLTFGGGTKLEI"
3,0.023 nM,"mAb 1156 (antibody, V domains shown) VH: QVTLKESGPTLVKPTQTLTLTCSFSGFSLSTSGVGVGWVRQPPGKALEWLAFIFWDDDKYYSPSLESRLTITKDTSKNQVVLTMTNMDPVDTATYYCARSADDYLYYSFDTWGQGTLVT VL: DIQMTQSPSSLSAFVGDGVTMTCWASQSINDYLNWYHQRPGEAPELLVFAASNLQIGVPSRFRGSGSETYFTLTINSLQPEDSGTYFCQSGHSFPLTFGGGTKLEI"
4,0.029 nM,"mAb 1192 (antibody, V domains shown) VH: QVTLKESGPTLVKPTQTLTLTCSFSGFSLSTSGVGVGWVRQPPGKALEWLAFIWWDDDKYYSPSLESRLTITKDTSKNQVVLTMTNMDPVDTATYYCARSYDDYLYYALDYWGQGTLVT VL: DIQMTQSPSSLSAFVGDGVTMTCWASQSINDYLNWYHQRPGEAPELLVFAASNLQIGVPSRFRGSGSETYFTLTINSLQPEDSGTYFCQNGHSFPLTFGGGTKLEI"
5,0.027 nM,"mAb 1154 (antibody, V domains shown) VH: QVTLKESGPTLVKPTQTLTLTCSFSGFSLSTSGVGVGWVRQPPGKALEWLAFIFWDDDKYYSPSLESRLTITKDTSKNQVVLTMTNMDPVDTATYYCARSADDYLYYSFDTWGQGTLVT VL: DIQMTQSPSSLSAFVGDGVTMTCWASQSINDYLNWYHQRPGEAPELLVFAASNLQIGVPSRFRGSGSETYFTLTINSLQPEDSGTYFCQNGHSFPLTFGGGTKLEI"
6,0.07 nM,"mAb 765 (antibody, V domains shown) VH: QVTLKESGPTLVKPTQTLTLTCSFSGFSLSTSGVGVGWVRQPPGKALEWLAFIFWDDDKYYSPSLESRLTITKDTSKNQVVLTMTNMDPVDTATYYCARSYDDYLYYALDYWGQGTLVT VL: DIQMTQSPSSLSAFVGDGVTMTCWASQSINDYLNWYHQRPGEAPELLVFAASNLQIGVPSRFRGSGSETYFTLTINSLQPEDSGTYFCQNAHSFPLTFGGGTKLEI"
7,0.053 nM,"mAb 968 (antibody, V domains shown) VH: QVTLKESGPTLVKPTQTLTLTCSFSGFSLSTSGVGVGWVRQPPGKALEWLAFIFWDDDKYYSPSLESRLTITKDTSKNQVVLTMTNMDPVDTATYYCARSYDDYLYYAFDYWGQGTLVT VL: DIQMTQSPSSLSAFVGDGVTMTCWASQSINDYLNWYHQRPGEAPELLVFAASNLQIGVPSRFRGSGSETYFTLTINSLQPEDSGTYFCQNGHSFPLTFGGGTKLEI"
